Test results reported in patent publication US20220064216A1 (ANBITION S R L, published 2022).
Blank lines part the entries; values can stand above or below the binder they belong to. Square brackets hold non-standard residues; d marks the D form. Ends that are not written are not given here. * marks the point of attachment. Met(O2) = CS(=O)(=O)CC[C@H](N)C(=O)O; Cha = N[C@@H](CC1CCCCC1)C(=O)O; Bn = c1ccc(C*)cc1

Experiments:
[1] = target: T1, human recombinant receptor VEGFR-1, the form consisting of the seven extracellular domains of the receptor fused to the Fc domain of human IgG (R&D Systems, cat No. 321-FL) (human), P17948; experiment: competition ELISA, VEGFR-1-Fc coated, VEGF-A 5 ng/ml as competing ligand, peptide at 3125 nM
T1 chain: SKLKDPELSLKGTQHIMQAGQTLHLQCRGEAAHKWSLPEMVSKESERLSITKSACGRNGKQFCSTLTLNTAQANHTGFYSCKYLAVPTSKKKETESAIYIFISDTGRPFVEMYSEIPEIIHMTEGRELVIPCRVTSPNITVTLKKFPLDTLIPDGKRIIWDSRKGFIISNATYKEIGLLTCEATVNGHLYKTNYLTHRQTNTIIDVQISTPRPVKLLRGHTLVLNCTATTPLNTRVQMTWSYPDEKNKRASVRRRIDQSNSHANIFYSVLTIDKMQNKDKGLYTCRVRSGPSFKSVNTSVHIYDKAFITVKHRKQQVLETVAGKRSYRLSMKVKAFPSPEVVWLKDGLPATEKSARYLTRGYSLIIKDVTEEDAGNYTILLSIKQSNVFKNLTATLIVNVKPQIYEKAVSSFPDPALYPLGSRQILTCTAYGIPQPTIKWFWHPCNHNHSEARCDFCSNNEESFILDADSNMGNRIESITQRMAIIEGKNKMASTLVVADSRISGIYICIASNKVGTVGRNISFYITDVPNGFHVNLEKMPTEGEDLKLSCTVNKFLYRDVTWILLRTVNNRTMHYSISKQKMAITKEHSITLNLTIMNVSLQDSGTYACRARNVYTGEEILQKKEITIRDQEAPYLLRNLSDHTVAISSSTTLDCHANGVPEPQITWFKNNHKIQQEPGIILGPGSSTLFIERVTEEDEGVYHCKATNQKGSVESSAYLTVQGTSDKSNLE

[2] = target: T1, human recombinant receptor VEGFR-1, the …; experiment: competition ELISA, VEGFR-1-Fc coated, PlGF 5 ng/ml as competing ligand, peptide at 25000 nM
[3] = target: T1, human recombinant receptor VEGFR-1, the …; experiment: competition ELISA, VEGFR-1-Fc coated, VEGF-A 5 ng/ml as competing ligand, peptide at 6250 nM
[4] = target: T1, human recombinant receptor VEGFR-1, the …; experiment: competition ELISA, VEGFR-1-Fc coated, VEGF-A 5 ng/ml as competing ligand, peptide at 780 nM
[5] = target: T1, human recombinant receptor VEGFR-1, the …; experiment: competition ELISA, VEGFR-1-Fc coated, PlGF 5 ng/ml as competing ligand, peptide at 780 nM
[6] = target: T1, human recombinant receptor VEGFR-1, the …; experiment: competition ELISA, VEGFR-1-Fc coated, VEGF-A 5 ng/ml as competing ligand, peptide at 25000 nM
[7] = target: T1, human recombinant receptor VEGFR-1, the …; experiment: competition ELISA, VEGFR-1-Fc coated, VEGF-A 5 ng/ml as competing ligand, peptide at 12500 nM
[8] = target: T1, human recombinant receptor VEGFR-1, the …; experiment: competition ELISA, VEGFR-1-Fc coated, PlGF 5 ng/ml as competing ligand, peptide at 1560 nM
[9] = target: T1, human recombinant receptor VEGFR-1, the …; experiment: competition ELISA, VEGFR-1-Fc coated, PlGF 5 ng/ml as competing ligand, peptide at 50000 nM
[10] = target: T1, human recombinant receptor VEGFR-1, the …; experiment: competition ELISA, VEGFR-1-Fc coated, PlGF 5 ng/ml as competing ligand, peptide at 3125 nM
[11] = target: T1, human recombinant receptor VEGFR-1, the …; experiment: competition ELISA, VEGFR-1-Fc coated, PlGF 5 ng/ml as competing ligand, peptide at 12500 nM
[12] = target: T1, human recombinant receptor VEGFR-1, the …; experiment: competition ELISA, VEGFR-1-Fc coated, VEGF-A 5 ng/ml as competing ligand, peptide at 50000 nM
[13] = target: T1, human recombinant receptor VEGFR-1, the …; experiment: competition ELISA, VEGFR-1-Fc coated, VEGF-A 5 ng/ml as competing ligand, peptide at 1560 nM
[14] = target: T1, human recombinant receptor VEGFR-1, the …; experiment: competition ELISA, VEGFR-1-Fc coated, PlGF as competing ligand
[15] = target: T1, human recombinant receptor VEGFR-1, the …; experiment: competition ELISA, VEGFR-1-Fc coated, VEGF-A as competing ligand
[16] = target: T1, human recombinant receptor VEGFR-1, the …; experiment: competition ELISA, VEGFR-1-Fc coated, PlGF 5 ng/ml as competing ligand, peptide at 6250 nM
[17] = target: T2, human recombinant receptor VEGFR-1, the form consisting of the seven extracellular domains of the receptor … (human, UniProt P17948 27-758); experiment: competition ELISA, VEGFR-1-Fc coated, VEGF-A as competing ligand
T2 construct: Bought reagent; also called Flt-1; not shown: Fc domain of human IgG
Experimental: The human recombinant receptor VEGFR-1, in particular the form consisting of the seven extracellular domains of the receptor fused to the Fc domain of human IgG (R&D Systems, cat No. 321-FL), was made to adhere in the wells of 96-well microplates at a concentration of 0.5 μg/ml in PBS pH 7.5 (100 μl/well) for 16 hours at room temperature (RT).
The binding reaction was conducted for one hour at 37° C., followed by one hour at room temperature.

[18] = target: T1, human recombinant receptor VEGFR-1, the …; experiment: competition ELISA, VEGFR-1-Fc coated, PlGF or VEGF-A as competing ligand; reference iVR1

- binding % (residual VEGF-A binding to VEGFR-1) [1]: 93.9%
- binding % (residual PlGF binding to VEGFR-1) [2]: 36%
- binding % (residual VEGF-A binding to VEGFR-1) [3]: 66%
- binding % (residual VEGF-A binding to VEGFR-1) [4]: 98.4%
- binding % (residual PlGF binding to VEGFR-1) [5]: 99.4%
- binding % (residual VEGF-A binding to VEGFR-1) [6]: 21.4%
- binding % (residual VEGF-A binding to VEGFR-1) [7]: 37%
- binding % (residual PlGF binding to VEGFR-1) [8]: 101%
- binding % (residual PlGF binding to VEGFR-1) [9]: 26.3%
- binding % (residual PlGF binding to VEGFR-1) [10]: 96.1%
- binding % (residual PlGF binding to VEGFR-1) [11]: 44.6%
- binding % (residual VEGF-A binding to VEGFR-1) [12]: 8.6%
- binding % (residual VEGF-A binding to VEGFR-1) [13]: 96.2%
- IC50 [14]: 10000 nM
- IC50 [15]: 10000 nM
- binding % (residual PlGF binding to VEGFR-1) [16]: 68.5%
B1: iVR1, tetrameric peptide of formula (IIc): [H-(R-Glu)-(S-Cys(Bzl))-(S-Cha)]4-Lys2-Lys-Gly-NH2 (peptide)
peptide: H-[dE]-Cys(Bn)-[Cha]
chain 1: Lys
chain 2: Lys-Gly-NH2
modifications: also: branched tetramer: four arms on alpha and epsilon amines of two Lys, each bonded to an amine of the Lys of chain 3

- IC50 [17]: 4620 nM
B2: tetrameric peptide having formula (II) with Y2 = L-methionine sulfone (peptide)
peptide: [dE]-Cys(Bn)-[Cha]
chain 1: Lys
chain 2: Lys-[Met(O2)]-NH2
modifications: also: branched tetramer: four arms on both amines of two Lys, each bonded to an amine of the Lys of chain 3
notes: Described only as a tetrameric peptide of formula (II) with Y2 different from D-cysteine

- binding % (residual VEGF-A binding to VEGFR-1) [1]: 21.7%
- binding % (residual PlGF binding to VEGFR-1) [2]: 10.3%
- binding % (residual VEGF-A binding to VEGFR-1) [3]: 12.5%
- inhibitory capacity, fold against iVR1 [18]: 10 fold
- binding % (residual VEGF-A binding to VEGFR-1) [4]: 92.3%
- binding % (residual PlGF binding to VEGFR-1) [5]: 83.8%
- binding % (residual VEGF-A binding to VEGFR-1) [6]: 7.99%
- binding % (residual VEGF-A binding to VEGFR-1) [7]: 9.81%
- binding % (residual PlGF binding to VEGFR-1) [8]: 35.5%
- binding % (residual PlGF binding to VEGFR-1) [9]: 9.18%
- binding % (residual PlGF binding to VEGFR-1) [10]: 25.5%
- binding % (residual PlGF binding to VEGFR-1) [11]: 12.6%
- binding % (residual VEGF-A binding to VEGFR-1) [12]: 6.5%
- binding % (residual VEGF-A binding to VEGFR-1) [13]: 43.7%
- IC50 [14]: < 1000 nM
- IC50 [15]: 1000 nM
- binding % (residual PlGF binding to VEGFR-1) [16]: 14.1%
B3: iVR1-Cys, tetrameric peptide of formula (IIb): [H-(R-Glu)-(S-Cys(Bzl))-(S-Cha)]4-Lys2-Lys-(D-Cys)-NH2 (peptide)
peptide: H-[dE]-Cys(Bn)-[Cha]
chain 1: Lys
chain 2: Lys-[dC]-NH2
modifications: also: branched tetramer: four arms on alpha and epsilon amines of two Lys, each bonded to an amine of the Lys of chain 3

- IC50 [17]: 2430 nM
B4: tetrameric peptide having formula (II) with Y2 = D-serine (peptide)
peptide: [dE]-Cys(Bn)-[Cha]
chain 1: Lys
chain 2: Lys-[dS]-NH2
modifications: also: branched tetramer: four arms on both amines of two Lys, each bonded to an amine of the Lys of chain 3
notes: as for B2

- IC50 [17]: 2030 nM
B5: tetrameric peptide having formula (II) with Y2 = L-cysteine (peptide)
peptide: [dE]-Cys(Bn)-[Cha]
chain 1: Lys
chain 2: Lys-Cys-NH2
modifications: also: branched tetramer: four arms on both amines of two Lys, each bonded to an amine of the Lys of chain 3
notes: as for B2
